The target in experiment [1] is T1, HGF receptor c-Met β chain (Homo sapiens, UniProt P08581).
T1 construct: expressed in transfected cells; host or cells: yeast AH109 strain (library prey plasmid, human kidney cDNA library, CLONTECH)
Briefly: Yeast two-hybrid binding of MERMUC bait proteins to c-Met prey (C-terminal 91 amino acids). As to conditions: prey clone No. 3-309 (C-terminal 91 amino acids of human c-Met). The protocol:
The present examination was performed using the previously reported yeast two-hybrid system (references are described above) according to conventional method and the experimental protocols provided with the reagents. […]
The binding ability of MERMUC bait protein derived from each of the bait vectors to the HGF receptor c-Met β chain was analyzed by the yeast two-hybrid system described above. […]
Each of the bait vectors was cointroduced into yeast AH109 strain with human HGF receptor c-Met prey vector (comprising DNA encoding the C-terminal 91 amino acids of the c-Met; Example 1). The binding ability of each of the bait proteins (randomly selected 10 amino acids of the human MERMUC C-terminal region) to the C-terminal region of human c-Met β chain was analyzed by the yeast two-hybrid system similar to the aforementioned Example.

In experiment [2] the test system is binding of MERMUC and HGF receptor c-Met. Briefly: Suppression of MERMUC binding to HGF receptor c-Met by MERMUC cytoplasmic region peptides (β-gal activity, CHO-K1 cells). The experiment is classed as cell-based, human.
The target in experiment [3] is T2, MERMUC self-association (Homo sapiens, UniProt Q8N307).
T2 construct: human MERMUC (full-length; full)/β-galΔα; β-galΔω (E. coli β-galactosidase residues 1-789); β-galΔα (E. coli β-galactosidase lacking residues 12-42); expressed in transfected cells; host or cells: CHO cells (A5); CHO-K1 cells (A6); pcDNA3 vectors
T2 sequence (Q8N307 with tags, fused parts or gaps R136E/DEL182-352/L354P/T442I/D493H limits assumed): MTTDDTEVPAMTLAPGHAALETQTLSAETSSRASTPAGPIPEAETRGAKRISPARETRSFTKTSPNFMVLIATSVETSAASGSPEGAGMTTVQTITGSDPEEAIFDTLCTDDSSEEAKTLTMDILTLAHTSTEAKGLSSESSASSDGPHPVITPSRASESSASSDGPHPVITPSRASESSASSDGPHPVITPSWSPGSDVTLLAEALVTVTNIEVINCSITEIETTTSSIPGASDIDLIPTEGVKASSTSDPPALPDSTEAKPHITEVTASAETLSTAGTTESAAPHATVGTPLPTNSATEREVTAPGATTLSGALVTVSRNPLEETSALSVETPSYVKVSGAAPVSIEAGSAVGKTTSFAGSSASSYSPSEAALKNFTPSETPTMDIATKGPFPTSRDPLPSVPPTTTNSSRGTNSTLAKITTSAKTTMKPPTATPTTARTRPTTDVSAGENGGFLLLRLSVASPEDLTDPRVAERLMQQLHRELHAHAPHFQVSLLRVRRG
Briefly: Suppression of MERMUC self-association by MERMUC cytoplasmic region peptides (β-gal activity, CHO-K1 cells). The experiment is classed as cell-based. Particulars: compared among del-1 to del-4; FIG. 16. An excerpt:
(§1) To validate this prediction and at the same time synthesize a MERMUCMERMUC peptide that is able to suppress MERMUC self-association through the binding to the MERMUC self-association region, the following 4 types of peptides each corresponding to a part of MERMUC cytoplasmic region were synthesized by the method described later: • del-1: amino acid sequence from amino acids 244 to 345 of SEQ ID NO: 10; • del-2: amino acid sequence from amino acids 244 to 380 of SEQ ID NO: 10; • del-3: amino acid sequence from amino acids 244 to 415 of SEQ ID NO: 10; and • del-4: amino acid sequence from amino acids 244 to 450 of SEQ ID NO: 10.
(§2) Each of the cDNA obtained by PCR was digested with HindIII and XhoI and inserted into the HindIII/XhoI site of pcDNA3 vector to obtain an expression vector expressing each of the human MERMUC cytoplasmic region fragments (del-1 to del-4). […]
(§3) Intracellular β-Galactosidase activity of the recombinant cells was measured using Gal-Screen System (Applied Biosystems) according to the accompanying protocol 48 hr after plasmid transfection. […]

Experiment [4] concerns the target T3, MERMUC self-association (Homo sapiens, UniProt Q8N307, D493H/DEL182-352/L354P/R136E/T442I).
T3 construct: human MERMUC (full-length; full)/β-galΔα; β-galΔω (E. coli β-galactosidase residues 1-789); β-galΔα (E. coli β-galactosidase lacking residues 12-42); expressed in transfected cells; host or cells: CHO cells (A5); CHO-K1 cells (A6); pcDNA3 vectors
T3 sequence (Q8N307 with tags, fused parts or gaps R136E/DEL182-352/L354P/T442I/D493H limits assumed): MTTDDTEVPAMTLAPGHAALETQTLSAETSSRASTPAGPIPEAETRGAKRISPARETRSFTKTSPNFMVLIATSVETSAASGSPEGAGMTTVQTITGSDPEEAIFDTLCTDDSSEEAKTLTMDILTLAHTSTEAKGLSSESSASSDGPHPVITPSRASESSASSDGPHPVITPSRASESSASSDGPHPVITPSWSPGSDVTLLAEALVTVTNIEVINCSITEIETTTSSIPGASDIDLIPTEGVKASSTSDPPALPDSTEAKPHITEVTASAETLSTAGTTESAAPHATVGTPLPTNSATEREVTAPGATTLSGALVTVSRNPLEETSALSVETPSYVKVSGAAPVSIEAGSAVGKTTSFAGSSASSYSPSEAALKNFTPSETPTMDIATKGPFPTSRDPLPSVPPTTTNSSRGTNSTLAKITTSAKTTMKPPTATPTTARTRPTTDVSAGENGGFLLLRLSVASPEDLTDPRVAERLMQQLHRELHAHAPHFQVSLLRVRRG
The experiment is described as above. The experiment is classed as cell-based. As to conditions: various concentrations of del-4; FIG. 18.
Excerpt: as §1, §2, §3

Experiment [5] relates to MAP kinase (Erk). Briefly: Recovery of HGF-induced MAP kinase activation in MERMUC/293 cells (Western blotting). Particulars: MERMUC expressing MERMUC/293 cells transfected with del-4 expression vector vs mock. The experiment is classed as cell-based, human. The protocol: The del-4 protein expression vector produced above was added to Tet-Off/MERMUC expressing recombinant cells (MERMUC/293 cells) (produced in Example 2) and cultured at 37° C. for 48 hr for transfection using GeneJammer Transfection Reagent (STRATAGENE) according to the accompanying protocol.
Cells were similarly transfected with pcDNA3 vector [mock] that lack the cDNA encoding del-4 instead of the del-4 expression vector as a control.
The cells were stimulated with human recombinant HGF (CALBIOCHEM), and cell lysate was prepared according to conventional method immediately after the stimulation to evaluate the activation level of MAP kinase (also referred to as Erk).
The cell lysate was separated by SDS-PAGE, and then subjected to Western blotting according to conventional method using anti-phosphorylated MAP kinase polyclonal antibody (Phospho-p44/42 MAP kinase (Thr202/Thr204) antibody; Cell Signaling Technology) to determine the MAP kinase activation level based on the obtained signal intensity.
In general terms: A western blot detects proteins with antibodies after separation by electrophoresis.

Here are results for three molecules from patent publication US20050113284A1, “Drug for regenerating tissue and vessel and method therefor” (priority 2001, published 2005).

T1 sequence (P08581 1300-1390): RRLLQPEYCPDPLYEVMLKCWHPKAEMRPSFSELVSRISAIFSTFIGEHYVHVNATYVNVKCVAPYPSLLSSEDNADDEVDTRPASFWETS

B1: C260: MERMUC bait protein, C-terminal 260 amino acids of cytoplasmic region; amino acids 244-503 of SEQ ID NO: 10 (protein, listed as Homo sapiens)
chain: VKASSTSDPPALPDSTEAKPHITEVTASAETLSTAGTTESAAPHATVGTPLPTNSATEREVTAPGATTLSGALVTVSRNPLEETSALSVETPSYVKVSGAAPVSIEAGSAVGKTTSFAGSSASSYSPSEAALKNFTPSETPTMDIATKGPFPTSRDPLPSVPPTTTNSSRGTNSTLAKITTSAKTTMKPPTATPTTARTRPTTDVSAGENGGFLLLRLSVASPEDLTDPRVAERLMQQLHRELHAHAPHFQVSLLRVRRG
As to B1, the “binding activity to the HGF receptor c-Met β chain” value in experiment [1] is “possessed the binding activity”.

B2: C260AC53: MERMUC bait protein, 53 amino acids deleted from the C-terminus of C260; amino acids 244-450 of SEQ ID NO: 10 (protein, listed as Homo sapiens)
chain: VKASSTSDPPALPDSTEAKPHITEVTASAETLSTAGTTESAAPHATVGTPLPTNSATEREVTAPGATTLSGALVTVSRNPLEETSALSVETPSYVKVSGAAPVSIEAGSAVGKTTSFAGSSASSYSPSEAALKNFTPSETPTMDIATKGPFPTSRDPLPSVPPTTTNSSRGTNSTLAKITTSAKTTMKPPTATPTTARTRPTTDVSA
For B2, the “binding activity to the HGF receptor c-Met β chain” value in experiment [1] was “completely lost the binding activity”.

B3: del-4: MERMUC cytoplasmic region peptide, amino acids 244 to 450 of SEQ ID NO: 10 (protein, listed as Homo sapiens)
chain: VKASSTSDPPALPDSTEAKPHITEVTASAETLSTAGTTESAAPHATVGTPLPTNSATEREVTAPGATTLSGALVTVSRNPLEETSALSVETPSYVKVSGAAPVSIEAGSAVGKTTSFAGSSASSYSPSEAALKNFTPSETPTMDIATKGPFPTSRDPLPSVPPTTTNSSRGTNSTLAKITTSAKTTMKPPTATPTTARTRPTTDVSA
Turning to B3, the “decrease in the binding of MERMUC and HGF receptor c-Met” value in experiment [2] (compared among del-1 to del-4, FIG. 17) is given as “greatest decrease”. Besides, the “suppression of the binding of MERMUC and HGF receptor c-Met, dose dependence” value in experiment [2] (various concentrations of del-4, FIG. 18) is “increased in del-4 dosage-dependent manner”. In experiment [3], the “suppression of MERMUC self-association” value is given as “strongest suppression”. For the same molecule, the “suppression of MERMUC self-association, dose dependence” value in experiment [4] was “increased in del-4 dosage-dependent manner”. Further, in experiment [5], the “phosphorylated MAP kinase level after HGF stimulation” value is given as “a significant level of phosphorylated MAP kinase was observed”.
